# According to patent publication US6841385B2, “Transcription factor E2F DNA-binding domain inhibitor peptides and their use” (Topotarget UK Limited, priority 1999, dated 2005):
# Ends that are not written are not given here. Peptide text beside a SMILES is read from it.
# B1: MAP4-SEQ ID NO:5 (peptide)
# peptide: GSRILTFRSGSWYAS
# modifications: also: tetravalent MAP core: 4 copies joined by C-terminus to Lys2-Lys-X core
# notes: Branched tetravalent peptide on a lysine MAP core
# B2: peptide SEQ ID NO:2 (WVRWHF) (peptide)
# peptide: WVRWHF
# notes: Synthetic peptide in the band shift assays
# B3: MAP4-SEQ ID NO:2 (branched molecule consisting of 4 copies of SEQ ID NO:2 linked by MAP, multiple antigen peptide) (peptide)
# peptide: WVRWHF
# modifications: also: tetravalent MAP core: 4 copies joined by C-terminus to Lys2-Lys-X core
# notes: as for B1
# B4: peptide SEQ ID NO:5 (GSRILTFRSGSWYAS) (peptide)
# peptide: GSRILTFRSGSWYAS
# notes: as for B2
# What was measured:
# recombinant E2F1 and DP1 = biological target: T1, recombinant E2F1 and DP1 (Homo sapiens, UniProt Q01094); experiment: Band shift assay with recombinant E2F1 and DP1, B-myb E2F-binding site as probe; settings: for inhibition: SEQ ID NO: 2 Alanine-scanning; for IC50: B-myb E2F-binding site as probe, read-out: IC50, inhibition of DNA binding
# T1 construct: Purified E2F1 N1-His (64-301) and DP1 N2-GST (84-249) were incubated at 10 μg/ml; His; made in house; host or cells: E. coli BL21 DE3 (pET28b) for E2F1
# Protocol: N-terminal fragments of human E2F1 (aa 64-301), E2F2 (aa 69-306), E2F3 (aa 128-356), E2F4 (aa 1-198), E2F5 (aa 42-233) were cloned into bacterial expression vector pET28b (Novagen) and were purified from BL21 DE3 cells by immobilised metal-affinity chromatography. A N-terminal fragment of DP1 (aa 85-249) was expressed as GST fusion protein and purified by glutathione-affinity chromatography.
# Purified E2F1 N1-His (64-301) and DP1 N2-GST (84-249) were incubated at 10 μg/ml in a buffer containing 10 mM HEPES, […], 1 mM EDTA, […], 33 mg/ml BSA and 0.1 μg of sonicated salmon sperm for 10 minutes on ice. ^32P-labelled probe was added and the reaction mixture was incubated at room temperature for 20 minutes. Probes were labelled by filling-in 5′ overhanging ends of 4-7 bases. Samples were run on 4% non denaturing polyacrylamide gel in 0.5% TBE at 4° C. Gels were exposed to X-ray films. Nuclear extract (3 μg) was incubated in 17 μl buffer containing 0.3 M NaCl, 0.4 M Tris pH 7.9, 100 mM EDTA, 0.4 M DTT, 13% glycerol, 1 μg of sonicated salmon sperm on ice. The samples were then incubated for 10 minutes at 30° C. and cooled on ice. ^32P-labelled probe was added, the reaction mixtures were incubated for another 10 minutes at 30° C. and then cooled on ice.
# • B-myb: (5′-[…]) (SEQ ID NO:16) • NF-Y: 5′-ATTTTTCTGATTTGGTTAA (SEQ ID NO:17) • Spl: 5′-ATGGGGCGGAGA (SEQ ID NO:18) • ATF: 5′-[…] (SEQ ID NO:19) Introduction of Peptides into Mammalian Cells
# The inhibitory potential of the peptides on E2F function was analysed in band shift assays with recombinant E2F1 and DP1. […] The IC50 concentrations for the 3 peptides were in the range of 50-100 μM. Inhibition to various extends was also observed using recombinant fragments of E2F2, E2F3, E2F4, E2F5, respectively. Approximately 100-fold lower IC50 values were found with a branched molecule consisting of 4 copies of SEQ ID NO:2 linked by MAP (multiple antigen peptide).
# HL60 cells [1] = experiment: Nuclease-laddering assay (DNA laddering) in HL60 cells; type: cell-based
# Protocol: Treated cells were collected, washed with PBS, resuspended in lysis buffer (50 mM Tris pH 7.9, 100 mM EDTA, pH 8, 100 mM NaCl, 1% SDS) and 500 μg/ml proteinase K and incubated at 55° C. for 18 h. Cells were then incubated with […] for 1 hour at 37° C., genomic DNA was purified and examined by agarose gel electrophoresis.
# (§1) Effects became visible after 5-24 hours defending on the concentration of the peptide.
# [2] = system: C33A (cervical carcinoma); experiment: BrDU proliferation assay, C33A cells; type: cell-based; settings: 24 hrs, dose-dependent
# Protocol: (§2) Four tumor cell lines U2OS (osteosarcoma), C33A (cervical carcinoma), HeLa (cervical carcinoma) and E2F4/ras (derived from primary rat embryo fibroblasts) were treated with the branched peptide MAP-4-SEQ ID NO:2-TAT or mutant control peptide MAP-4-SEQ ID NO:39-TAT for 24 hrs. Cell proliferation was measured using the BrDU proliferation assay from Boehringer Mannheim (Cat No. 1 647 229).
# HL60 cells [3] = experiment: Apoptosis, staining of HL60 cells with Heochst 33342 propidium iodide; type: cell-based
# Protocol: as §1
# CycA promoter = experiment: Transcription from the CycA promoter, HeLa cells transiently transfected with CycA-Luciferase construct; type: cell-based
# Text: This finding is in agreement with the anti-repressor function of E2F in the CycA promoter, (Liu et al, Oncogene (1998), 16, 2957-2963).
# HeLa cells = experiment: BrdU incorporation cell proliferation assay, HeLa cells; type: cell-based; settings: 24 hrs, dose-dependent
# Protocol: (§3) HeLa cells were grown in Dulbecco's Modified Eagle's Medium (DMEM) supplemented with fetal calf serum (FCS) and HL60 cells in RPMI 1640 supplemented with 10% FCS. Cells were treated with peptides in culture medium and incubated overnight before harvesting.
# The peptides were tested in further experiments for their effect on cell cycle progression and cell viability. For this purpose, the peptides were conjugated at their C-terminus to a cell penetrating HIV-Tat derived peptide (aa 48-60) (Fawell et al. (1994) Proc. Natl. Acad. Sci. USA 91, 664-668).
# (§4) HeLa, 3T3, W138 cells were treated with varying concentration of MAP-4-SEQ ID NO:2-TAT and a control peptide MAP-4-SEQ ID NO:39-TAT wherein SEQ ID NO:39 is SEQ ID NO:2 but containing 2 alanine substitutions at positions 1 and 4, i.e. AVRAHF (SEQ ID NO:39) DNA replication was analysed by BrdU incorporation after 24 hours.
# as §2
# [4] = system: E2F4/ras (derived from primary rat embryo fibroblasts); experiment: BrDU proliferation assay, E2F4/ras cells; type: cell-based; settings: 24 hrs, dose-dependent
# Protocol: as §2
# HL60 cells [5] = experiment: Growth of HL60 cells treated with peptide; type: cell-based; settings: HL60 cells, concentrations between 1-5 μM
# Protocol: as §3, §4, §1
# U2OS (osteosarcoma) = experiment: BrDU proliferation assay, U2OS cells; type: cell-based; settings: 24 hrs, dose-dependent
# Protocol: as §2
# [6] = biological target: E2F in HeLa cells (nuclear extracts; endogenous E2F in transfected HeLa cells); experiment: band shift with HeLa nuclear extract; inhibition of E2F DNA binding
# [7] = biological target: E2F1 overexpressed in stable transfected 3T3 cells (nuclear extract) (UniProt Q01094 1-437, limits assumed); experiment: band shift, extract of 3T3 cells overexpressing E2F1; inhibition of DNA binding
# Protocol: (§5) Probes were labelled by filling-in 5' overhanging ends of 4–7 bases. Samples were run on 4% non denaturing polyacrylamide gel in 0.5% TBE at 4° C. Gels were exposed to X-ray films. […] The samples were then incubated for 10 minutes at 30° C. and cooled on ice. ^32P-labelled probe was added, the reaction mixtures were incubated for another 10 minutes at 30° C. and then cooled on ice.
# [8] = biological target: E2F3 overexpressed in stable transfected 3T3 cells (nuclear extract) (UniProt O00716 1-465, limits assumed); experiment: band shift, extract of 3T3 cells overexpressing E2F3; inhibition of DNA binding
# Protocol: as §5
# [9] = biological target: E2F5 overexpressed in stable transfected 3T3 cells (nuclear extract) (UniProt Q15329 1-346, limits assumed); experiment: band shift, extract of 3T3 cells overexpressing E2F5; inhibition of DNA binding
# Protocol: as §5
# [10] = biological target: E2F2 overexpressed in stable transfected 3T3 cells (nuclear extract) (UniProt Q14209 1-437, limits assumed); experiment: band shift, extract of 3T3 cells overexpressing E2F2; inhibition of DNA binding
# Protocol: as §5
# [11] = biological target: E2F in nuclear extracts from F9 embryonal carcinoma cells; experiment: band shift with F9 nuclear extract; inhibition of E2F DNA binding
# [12] = biological target: E2F4 overexpressed in stable transfected 3T3 cells (nuclear extract) (UniProt Q16254 2-413, limits assumed); experiment: band shift, extract of 3T3 cells overexpressing E2F4; inhibition of DNA binding
# Protocol: as §5
# [13] = biological target: T2, recombinant E2F1 N1-His (64-301) with DP1 N2-GST (84-249) (human, UniProt Q01094 64-301; Q14186 84-249); experiment: deletion analysis; grade of inhibition of E2F DNA binding (band shift)
# T2 construct: range 64-301;range 84-249; Both proteins were incubated together at 10 ug/ml in the band shift assay with a 32P-labelled B-myb E2F-site probe; also called recombinant E2F1 and DP1; not shown: His tag from vector pET28b; GST fusion partner
# [14] = biological target: T2, recombinant E2F1 N1-His (64-301) with …; experiment: alanine scanning; grade of inhibition of E2F DNA binding (band shift)
# Protocol: as §5
# [15] = biological target: T2, recombinant E2F1 N1-His (64-301) with …; experiment: band shift, recombinant E2F, inhibition of DNA binding
# Protocol: Samples were run on 4% non denaturing polyacrylamide gel in 0.5% TBE at 4° C. Gels were exposed to X-ray films. […] The samples were then incubated for 10 minutes at 30° C. and cooled on ice. ^32P-labelled probe was added, the reaction mixtures were incubated for another 10 minutes at 30° C. and then cooled on ice.
# [16] = biological target: T2, recombinant E2F1 N1-His (64-301) with …; experiment: alanine scanning; grade of inhibition of E2F DNA binding (band shift); remark: listed apart in the source
# Protocol: as §5
# T1 sequence (Q01094 64-301): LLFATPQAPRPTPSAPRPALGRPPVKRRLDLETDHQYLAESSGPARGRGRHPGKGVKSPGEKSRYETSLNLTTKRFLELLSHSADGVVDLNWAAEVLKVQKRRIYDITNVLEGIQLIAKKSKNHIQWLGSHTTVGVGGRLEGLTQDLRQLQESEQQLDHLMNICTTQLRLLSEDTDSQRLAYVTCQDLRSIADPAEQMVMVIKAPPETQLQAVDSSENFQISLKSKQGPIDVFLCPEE
# T1 sequence (Q14186 84-249 partner): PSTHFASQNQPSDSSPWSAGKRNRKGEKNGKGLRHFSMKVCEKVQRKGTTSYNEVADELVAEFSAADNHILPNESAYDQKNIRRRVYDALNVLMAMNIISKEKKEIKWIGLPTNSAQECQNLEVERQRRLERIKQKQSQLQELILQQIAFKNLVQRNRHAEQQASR
# T2 sequence (Q01094 64-301, chain 1 of 2): as the sequence (Q01094 64-301) above
# T2 sequence (Q14186 84-249, chain 2 of 2): as the sequence (Q14186 84-249 partner) above
# Sequence of E2F2 overexpressed in stable transfected 3T3 cells (nuclear extract) (Q14209 whole entry): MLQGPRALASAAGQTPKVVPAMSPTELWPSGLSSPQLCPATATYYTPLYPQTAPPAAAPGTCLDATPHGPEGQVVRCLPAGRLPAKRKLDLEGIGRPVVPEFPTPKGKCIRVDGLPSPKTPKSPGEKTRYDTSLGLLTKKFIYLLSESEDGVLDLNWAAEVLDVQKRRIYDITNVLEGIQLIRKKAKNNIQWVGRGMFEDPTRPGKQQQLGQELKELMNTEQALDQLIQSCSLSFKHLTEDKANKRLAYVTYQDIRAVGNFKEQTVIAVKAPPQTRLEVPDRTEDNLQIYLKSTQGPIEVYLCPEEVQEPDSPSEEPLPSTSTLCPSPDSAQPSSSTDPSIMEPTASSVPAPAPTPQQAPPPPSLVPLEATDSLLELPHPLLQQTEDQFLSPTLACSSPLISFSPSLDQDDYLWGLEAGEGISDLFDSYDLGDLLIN
# Sequence of E2F5 overexpressed in stable transfected 3T3 cells (nuclear extract) (Q15329 whole entry): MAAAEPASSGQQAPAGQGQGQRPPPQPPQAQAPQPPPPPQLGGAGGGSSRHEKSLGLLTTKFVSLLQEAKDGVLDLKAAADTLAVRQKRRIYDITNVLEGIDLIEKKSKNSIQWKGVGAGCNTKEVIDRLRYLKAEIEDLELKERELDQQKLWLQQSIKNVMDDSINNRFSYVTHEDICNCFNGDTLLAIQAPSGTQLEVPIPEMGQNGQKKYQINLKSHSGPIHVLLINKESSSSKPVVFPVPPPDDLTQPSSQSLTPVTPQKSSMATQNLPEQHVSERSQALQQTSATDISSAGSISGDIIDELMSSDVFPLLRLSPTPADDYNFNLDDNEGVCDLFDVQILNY
# Sequence of E2F1 overexpressed in stable transfected 3T3 cells (nuclear extract) (Q01094 whole entry): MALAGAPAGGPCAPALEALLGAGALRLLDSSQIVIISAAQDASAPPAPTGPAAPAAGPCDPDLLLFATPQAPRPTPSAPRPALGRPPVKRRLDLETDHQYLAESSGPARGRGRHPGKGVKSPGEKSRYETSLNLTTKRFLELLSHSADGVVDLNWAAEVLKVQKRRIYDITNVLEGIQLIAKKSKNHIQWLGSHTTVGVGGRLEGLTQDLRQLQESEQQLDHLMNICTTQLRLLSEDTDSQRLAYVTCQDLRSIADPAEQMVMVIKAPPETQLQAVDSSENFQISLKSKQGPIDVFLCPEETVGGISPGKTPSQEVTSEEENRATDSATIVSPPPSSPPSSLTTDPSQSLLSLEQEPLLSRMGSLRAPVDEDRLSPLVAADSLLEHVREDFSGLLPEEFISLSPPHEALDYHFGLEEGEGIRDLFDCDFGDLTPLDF
# Sequence of E2F3 overexpressed in stable transfected 3T3 cells (nuclear extract) (O00716 whole entry): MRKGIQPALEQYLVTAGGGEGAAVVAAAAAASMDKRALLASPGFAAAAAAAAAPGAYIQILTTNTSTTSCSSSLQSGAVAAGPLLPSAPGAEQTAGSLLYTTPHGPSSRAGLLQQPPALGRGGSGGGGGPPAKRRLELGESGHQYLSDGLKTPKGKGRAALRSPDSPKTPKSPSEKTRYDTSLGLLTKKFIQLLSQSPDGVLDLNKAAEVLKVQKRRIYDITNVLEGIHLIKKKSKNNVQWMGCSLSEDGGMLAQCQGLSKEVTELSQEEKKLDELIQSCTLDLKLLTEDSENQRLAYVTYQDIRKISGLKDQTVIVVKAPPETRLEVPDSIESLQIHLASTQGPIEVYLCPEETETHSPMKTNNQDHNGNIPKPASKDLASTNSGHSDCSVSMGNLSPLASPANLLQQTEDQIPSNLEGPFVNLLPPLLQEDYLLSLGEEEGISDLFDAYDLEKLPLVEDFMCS
# Sequence of E2F4 overexpressed in stable transfected 3T3 cells (nuclear extract) (Q16254 2-413 limits assumed): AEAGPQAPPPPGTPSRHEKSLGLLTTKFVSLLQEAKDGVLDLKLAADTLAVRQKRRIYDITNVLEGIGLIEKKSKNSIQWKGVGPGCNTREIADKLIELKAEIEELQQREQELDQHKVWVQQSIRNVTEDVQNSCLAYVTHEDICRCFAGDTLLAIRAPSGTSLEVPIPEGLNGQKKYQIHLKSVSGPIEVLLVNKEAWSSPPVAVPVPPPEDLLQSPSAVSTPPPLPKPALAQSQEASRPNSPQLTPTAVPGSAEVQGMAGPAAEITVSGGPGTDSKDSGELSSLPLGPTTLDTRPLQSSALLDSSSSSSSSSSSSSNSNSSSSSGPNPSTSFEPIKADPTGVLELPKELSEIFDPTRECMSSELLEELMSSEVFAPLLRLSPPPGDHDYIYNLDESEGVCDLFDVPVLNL
molecule,measurement,setting,value
WVAWHF [SEQ2-A3],inhibition,recombinant E2F1 and DP1,0
"CC[C@H](C)[C@H](NC(=O)[C@H](CCCNC(=N)N)NC(=O)[C@H](CO)NC(=O)CN)C(=O)N[C@@H](CC(C)C)C(=O)N[C@H](C(=O)N[C@@H](Cc1ccccc1)C(=O)N[C@@H](CCCNC(=N)N)C(=O)N[C@@H](CO)C(=O)NCC(=O)N[C@@H](CO)C(=O)N[C@@H](Cc1c[nH]c2ccccc12)C(=O)N[C@@H](Cc1ccc(O)cc1)C(=O)N[C@@H](C)C(=O)N[C@@H](CO)C(=O)O)[C@@H](C)O [SEQ ID NO:5, GSRILTFRSGSWYAS] (H-GSRILTFRSGSWYAS-OH)",IC50,recombinant E2F1 and DP1,50 to 100 µM
WVRWAF [SEQ2-A5],inhibition,recombinant E2F1 and DP1,0
"CC[C@H](C)[C@H](N)C(=O)N[C@@H](Cc1c[nH]c2ccccc12)C(=O)N[C@@H](CC(C)C)C(=O)N[C@@H](CO)C(=O)NCC(=O)N[C@@H](CC(C)C)C(=O)N[C@@H](CO)C(=O)N[C@@H](CCCNC(=N)N)C(=O)NCC(=O)N[C@H](C(=O)N[C@@H](Cc1c[nH]c2ccccc12)C(=O)N[C@H](C(=O)N[C@@H](CO)C(=O)N[C@@H](Cc1ccccc1)C(=O)N1CCC[C@H]1C(=O)O)C(C)C)C(C)C [SEQ ID NO:4, IWLSGLSRGVWVSFP] (H-IWLSGLSRGVWVSFP-OH)",IC50,recombinant E2F1 and DP1,50 to 100 µM
"CC(C)[C@H](NC(=O)[C@@H](N)Cc1c[nH]c2ccccc12)C(=O)N[C@@H](CCCNC(=N)N)C(=O)N[C@@H](Cc1c[nH]c2ccccc12)C(=O)N[C@@H](Cc1c[nH]cn1)C(=O)N[C@@H](Cc1ccccc1)C(=O)O [SEQ ID NO:2, WVRWHF] (H-WVRWHF-OH)",IC50,recombinant E2F1 and DP1,50 to 100 µM
WARWHF [SEQ2-A2],inhibition,recombinant E2F1 and DP1,0
"MAP-4-SEQ ID NO:39-TAT: control peptide; SEQ ID NO:39 is SEQ ID NO:2 with 2 alanine substitutions at positions 1 and 4, i.e. AVRAHF (not fully specified (N-terminus, C-terminus); also: MAP-4 branched core) [reference compound]",DNA laddering,HL60 cells [1],No effects
same,inhibition of proliferation,[2],not displayed
same,hallmarks of apoptosis after staining,HL60 cells [3],No effects
same,effect on transcription from CycA-Luciferase construct,CycA promoter,No effect
same,inhibition of proliferation,HeLa cells,not displayed
same,inhibition of proliferation,[4],not displayed
same,inhibition of cell proliferation / cell growth,HL60 cells [5],no inhibitory effects
same,inhibition of proliferation,U2OS (osteosarcoma),not displayed
B1,IC50,[6],10 µM
same,IC50,[7],~30 µM
same,IC50,[8],~30 µM
same,IC50,[9],~30 µM
same,IC50,[10],~30 µM
same,IC50,[11],10 µM
same,IC50,[12],~30 µM
RILTFRSGSWYAS [SEQ5-5 (3-15) (RILTFRSGSWYAS)],binding result,[13],binds
SRILTFRSGSWY [SEQ5-8 (2-13) (SRILTFRSGSWY)],binding result,[13],binds
B2,concentration without inhibition,[6],> 500 µM
same,binding result,[14],binds
same,concentration without inhibition,[11],> 500 µM
WVAWHF [SEQ2-A3 (WVAWHF)],binding result,[14],binds
WARWHF [SEQ2-A2 (WARWHF)],binding result,[14],binds
WVRWAF [SEQ2-A5 (WVRWAF)],binding result,[14],binds
GSRILTFRSGSWYAS [peptide SEQ ID NO:5 (…)],IC50,[6],100 µM
same,IC50,[11],100 µM
B3,concentration at which inhibition of E2F-DNA binding was found,[6],10 to 30 µM
same,IC50,[7],~30 µM
same,IC50,[8],~30 µM
same,IC50,[9],~30 µM
same,fold lower IC50 (against the unbranched peptides),[15],~100 fold
same,IC50,[10],~30 µM
same,concentration at which inhibition of E2F-DNA binding was found,[11],10 to 30 µM
same,IC50,[12],~30 µM
B4,binding result,[13],binds
GSRILTFRSGSWAAS [SEQ5-A13 (GSRILTFRSGSWAAS)],binding result,[16],binds
GSAILTFRSGSWYAS [SEQ5-A3 (GSAILTFRSGSWYAS)],binding result,[16],binds
